Assay results as given in patent publication US20140223606, “COMPOSITIONS AND METHODS COMPRISING SEQUENCES HAVING MEGANUCLEASE ACTIVITY” (PIONEER HI BRED INTERNATIONAL INC, published 2014).
Numbering of substitutions follows the chain as printed.

Legend:
Experiment in all cases: cell_activity; yeast 37 C; 30 C: 0
Conditions in all cases: tags: NLS, 6xHis
ZM6.22v2(J2) = target: T1, ZM6.22v2(J2) (artificial)
T1 chain: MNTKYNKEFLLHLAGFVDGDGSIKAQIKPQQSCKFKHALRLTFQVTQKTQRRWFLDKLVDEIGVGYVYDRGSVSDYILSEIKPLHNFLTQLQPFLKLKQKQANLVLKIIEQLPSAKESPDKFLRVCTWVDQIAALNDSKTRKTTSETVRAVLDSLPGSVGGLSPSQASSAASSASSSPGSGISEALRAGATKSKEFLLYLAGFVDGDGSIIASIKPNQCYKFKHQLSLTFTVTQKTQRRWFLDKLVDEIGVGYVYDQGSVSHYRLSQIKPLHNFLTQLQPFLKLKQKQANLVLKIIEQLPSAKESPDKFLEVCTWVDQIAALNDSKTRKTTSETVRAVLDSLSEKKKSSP
Description: (§1) A 3 mL culture of selective media (MP Biomedical) was inoculated with a single colony of the yeast screening strain and grown at 30° C. overnight. On the following day, a 50 ml YPD culture (MP Biomedical) was started with 2 ml of the overnight culture and grown at 30° C. overnight. On the following day, the cells were harvested by centrifugation at 4000 rpm. The cells were resuspended in 100 ml ice cold water and centrifuged again. The cells were then washed in 1.2 M sorbitol, followed by treatment with 2 ml of 10 mM Tris pH 8.0, 1 mM EDTA, 100 mM Lithium acetate, 10 mM DTT, 0.6M sorbitol for 30 minutes at 30° C. with shaking. The cells were recovered by centrifugation, washed in 40 ml 1.2M sorbitol and finally resuspended in 250 microliters of 1.2M sorbitol. 50 microliter aliquots were transferred to test tubes on ice. Up to 5 microliters of DNA (100-500 nanograms) were added. The suspension was transferred to a 0.2 cm electroporation cuvette, on ice. Electroporation was performed with a pulse charge at 1.5 kV, 200 ohms, 25 microF (pulse time of 5 milliseconds). 1 mL YPD media (MP Biomedical) was added and the cells were allowed to recover at 30° C. for 1-2 hr. The cells were centrifuged, resuspended in 100 uL 1M sorbitol and plated on selective media lacking leucine and containing 2% galactose. The resulting yeast colonies were incubated at various temperatures ranging from 22 to 37 degrees Celsius for 7-10 days. I-CreI and meganucleases derived from it have maximal activity at or above 37 degrees Celsius. Screening was performed at a range of temperatures from 22 to 37 degrees in order to observe increases in activity at lower temperatures which are relevant to certain biological systems (eg. plant cells, plant cell cultures, etc). At that time the red/white sectoring phenotype, indicative of meganuclease activity was observed. Colonies with increased white sectoring over the parental meganuclease (indicating colonies expressing a meganuclease with increased meganuclease activity), also referred to as “hits” and sometimes completely white, were isolated for further analysis.
(§2) A total of 13 ZM6.22v2 variants with increased activity were confirmed in the yeast system (as described in Example 6). Increased activity was observed across a range of temperatures: 28 degrees Celsius, 30 degrees Celsius and 37 degrees Celsius, as shown in Table 16.

ZM6.22v2(I9) = target: T2, ZM6.22v2(I9) (artificial)
T2 chain: T1 chain with H12Y, K57E, R124E, V316A, Q318R
Description: as §1, §2

ZM6.22v2(I7) = target: T3, ZM6.22v2(I7) (artificial)
T3 chain: T1 chain with Q50R, K57E, Q318R
Description: as §1, §2

ZM6.22v2(I3) = target: T4, ZM6.22v2(I3) (artificial)
T4 chain: T1 chain with R124E, E311R
Description: as §1, §2

ZM6.22v2 = target: T5, ZM6.22v2 (artificial)
T5 chain: T1 chain with H12Y, R124E
Description: as §1, §2

B1: ZM6.22v2 recognition site (dsDNA)
DNA 1: ATTGCTCTCTCACATACTTTTA
DNA 2: TAAAAGTATGTGAGAGAGCAAT
Work on B1 yielded an activity (ZM6.22v2(J2)) of 2 score 0-4, an activity (ZM6.22v2(I9)) of 2 score 0-4 and an activity (ZM6.22v2(I7)) of 2 score 0-4. For the same binder, the activity (ZM6.22v2(I3)) was 2 score 0-4 and the activity (ZM6.22v2) was 1 score 0-4.
